Data taken from the nanobody polyreactivity screen of Harvey et al. (2022).

Assay: yeast display, Sf9 membrane polyspecificity reagent, FACS + sequencing; frameworks hold sequencing errors
Method in brief: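 Nanobodies from a synthetic yeast display library (Saccharomyces cerevisiae BJ5465), induced 36–48 hours with galactose, were stained 1 hour at 4 °C with 10% biotinylated, detergent-solubilized Sf9 membrane reagent, enriched on streptavidin microbeads, then FACS-sorted. Anti-HA (expression) and streptavidin (reagent binding) fluorescence set low and high (top ~1%) gates. Polyreactivity labels come from the gate of origin. Genes were colony-PCR amplified, MiSeq 2 × 250 sequenced and filtered by CDR length.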

QVQLVDSGGGLVQAGGSLRLSCAASGSILYPYAMGWDRQAPGKEREFVAAITYGGGRTYYADSVKGRFTISRDNAKNTVYLQMNSLKPEDTAVYYCAAKSVYAGRRRIYYLWYDYWGQGTQVTVSS
polyreactivity (PSR sort gate): high polyreactivity

QVQLVESGGGLVQAGGSLRLSCAASGFTLAGYDMGWSRQAPGKERELVATLSTYADSVKGRFTISRDNAKNTVYLQMNSLKPEDTAVYYCAKKYVWTHNYWGQGTQVTVSS
polyreactivity (PSR sort gate): low polyreactivity

QVQLVESGGGLVQAGGSLRLSCAASGSARYAMGWYRQAPGKERELVAAISRRGGSTFYADSVKGRFTISRDNAKNTVYLQMHSLKPEDTAVYYCAADGRISYDYWGQGTQVTVSS
polyreactivity (PSR sort gate): low polyreactivity

QVQHVESGGCLVQAGASLRLSCDASGSIFRRNAMGWYRQAPGKERQLVDAITSYGGRTYYADSVKGRFTISRDNAKNTVYFQMNSLKPVDTAVYYCASRYPWGWAMNYWGQGTQVTVSS
polyreactivity (PSR sort gate): high polyreactivity

QVQLVESGGGLVQAGGSLRVSCAASGRIFVQYDMGWYRQAPGKERELVAAINDSGDITYYADSVKGRFTISRDNAKNTVYLQMTSLKPEDTAVYSCAASAAYYGFYKSVTYDYWGQGTQVSVSS
polyreactivity (PSR sort gate): low polyreactivity

QVQLVESGGGLVQAGGSLRLSCAASGSILARYAMGWYRQAPGKERELVAAISSRGGSTYYADSVKGRFTISRDNAKNTVYLQMNSLKPEDTAVYYCAAYVYLQVEYDYWGQGTQVTVSS
polyreactivity (PSR sort gate): low polyreactivity

QVQLVESGGGLVQAGGSLRLSCAASGLTFYRNVMGWYRQAPGKERELVAAISGNGGSTYYADSVKGRFTISRDNAKNTVYLQMNSLKPEDTAVYYCATRAYDTGYGYWGQGTQVTVSS
polyreactivity (PSR sort gate): high polyreactivity

QVQLVESGGGLVQAGGSLRLSCAASGSTFYRYAMGWYRQAPGKERELVAAISSSGGSTYYADSVKGRFTISRDNAKNTVYLQMNSLKPEDTAVYYCNAALTPYDYDYWGQGTQVTVSS
polyreactivity (PSR sort gate): low polyreactivity

QVQLVESGGGLVQAGGSLRLSCAASGRTFYAYTRGWYRQAPGKERELVAAISSSGTRTYYADSVKGRFTISRDNAKNTVYLQMNSLKPEDTAVYDCAKGTQRFRGLDHGYDYWGQGTQVTVSS
polyreactivity (PSR sort gate): high polyreactivity

QVQLVESGGGLVQAGGSLRLSCAASGRIFQKYAMGWYRQAPGKERELVAVITGRGGSTYYADSVKGRFTISRDNAKNTVFLLMNSLKKEDTAVYYCASVPGYWGQGTQVTVSS
polyreactivity (PSR sort gate): high polyreactivity

QVQLVESGGGLVQAGGSLRLSCAASGSIFITYVMGWSRQAPGKERELVAGISRSGGSTYYADSVKGRFTISRYNAKNTVYLQMNSLKPEDTAVYYCAAFFLRRPGSSGLRLLGQGTQVTVSS
polyreactivity (PSR sort gate): high polyreactivity

QVQLVESGGGLDQAGGSLRLSCAASGRTFVVYAMGWYRQAPGKERELVAAITSSGNTYYADSVKGRFTISRDNAKNTVYLQMNSLKPEDTAVYYCAAYSLYGYDYWGQGTQVTVSS
polyreactivity (PSR sort gate): low polyreactivity

QVQLVESGAGLVQAGGSLRLSCAASGFTLVLNAMGGYSQAPGKERELVAAIRRSAGSTYYADSVKGRFTISRDNAKNTVYLQMNSLKPEDTAVYYSNADYTYTDRRFAPAGGWYYYWGQGTQVTVSS
polyreactivity (PSR sort gate): low polyreactivity

QVQLVESGGGLVQAGGSLRLSCAASGRIFYRYAMGWYRQAPGKERELVATISSGGSTNYADSVKGRFTISRDNAKNTVYLQMNSLKPEDTAVYYCARQSLRYSYVSRDYWGLGTQVTVSS
polyreactivity (PSR sort gate): low polyreactivity

QVQLVESGGGLVQAGGSLRLSCAASGSIFAGNAMGWYRQAPGKERELVAAISRRGGSTYYADSVKGRFTISRDNAKNTVYLQMNSLKPEDTAVYYCAAANWQRYYYWGQGTQVTVSS
polyreactivity (PSR sort gate): high polyreactivity

QVQLVESGGGLVQAGGSLRLSCAASGRTFVWNVMGWYRKAPGKEREFVAAISGGSTYYADSVKGRFTISRDNAKNTVYLQMNRLKPEDTAVNYCAAASKLHPRYEYWGQGTQVTVSS
polyreactivity (PSR sort gate): low polyreactivity

QVHLVESGGGLVQAGGSLRLSCAASGSTFRGYGMGWYRQAPGKERELVAAISWRAASTYYADSVKGRFTISRDNAKNTVYLQMNSLKPEDTAVYYCAARYSFSSSTRYYYWGQGTQVTVSS
polyreactivity (PSR sort gate): high polyreactivity

QVQLVESGGGLVQAGGSLRLSCAASGRIDVSNAMGWYRQAPGKERELVAAITRTGASTYYADSVKGRCTISRDNAKNNVYVQMNSLKPEDSAVYYSDDVWGWPYWVYRYDYWGQGTQVTVSS
polyreactivity (PSR sort gate): high polyreactivity

QVQLVESGGGLVQAGGSLRLSCAASGFIFSSYAMGWYRQAPGKEREFVAAIDWNSTSTYYADSVKGRFTISRDNAKNTVYLQMNSLKPEDTAVYYCAADWVGYFVYPYDYWGQGTQVTVSS
polyreactivity (PSR sort gate): high polyreactivity

QVQLVESGGGLVQAGGSLRLSCAASGSTFQGYAMGWYRQAPGKERELVAAINYSGGSTYYADSVKGRFTISRDNAKNTVYFQMNSLKPEDTAVYYCAVKLRSRAVTSYGYWGQGTQVTVSS
polyreactivity (PSR sort gate): high polyreactivity

QVQLVESGGGLVQAGGSLRISCAASGGNFDSNAMGWTRPAPGKVRELVAAISDSGGSTYYADSVKGRFTISRDNAYNTVYLQMNSLKPEDTAVYYCAADSDYHFVNYRFGMDYWGQGTQVTVSS
polyreactivity (PSR sort gate): low polyreactivity

QVQLVESGGGLVQAGGSLRLSCAASGFIFGGDPMGWYRQARGSDRELVAAISSSGGRTYYADSVKRRFTISRDNAKNNVYLQLNSLKPEDTAVYSCAVPRFGSAAKRYYYWGQGTQVTVTS
polyreactivity (PSR sort gate): high polyreactivity

QVQLVESGGGLVQAGGSLRLSCAASGSIFTLYTMGWYRQAPGKERELVAGISWRGGRTYYADSVKGRFTISRDNAKNTVYLQMNSLKPEDTAVYYCAAKWTPHIYTLYSWGQGTQVTVSS
polyreactivity (PSR sort gate): high polyreactivity

QVQLVESGGGLVQAGGSLRLSCAASGNIFTKYAMGWYRPAPGKERELVAAITWSGGSTYYADSVKGRFTISRDNAKNTVYLRMNSLKPEDTAVYYCATAHGFRRDKPYDYWGQGTQVTVSS
polyreactivity (PSR sort gate): high polyreactivity

QVQLVESGGGLVQAGGSLRLSCAASGSIFVYNAMGWYRQAPGKERELVAGITFIGGSTYYADPVKGRFTISRDNAKNTVYLQMNSLKPEDTAVYYCNADVAPGIFYGYDSWGQGTQVTVSS
polyreactivity (PSR sort gate): low polyreactivity

QVQLVESGGGLVQAGGSLRLSCASSGSIFLINAMGWYRQAPGKERELVAAISRSGGRTYYADSVKGRFTISRDNAKNTVYLQMNSLKPEDTAVYYCAVPSIYYAGRAYDYWGQGTQVTVSS
polyreactivity (PSR sort gate): high polyreactivity

QVQLVESGGGLVQAGGSLRLSCAASGRILEYNAMGWYRQAPGKERELVAAITSDGSTNYADSVKGRFTISRDNAKNTVYLQMNSLKPEDTAVYYCNTRYSLYTKYAYYDELDYWGQGTQVTLSS
polyreactivity (PSR sort gate): low polyreactivity

QVQLVESGGGLVQAGGSLRLSCAASGSIFGLYAMGWYRQAPGKERELVATITSGTNTYYADSVKGRFTISRDNAKNTVYLQMNSLKAEDTAVYYCAKSYIAWDGRTFEEMNYWGQGTLVTVSS
polyreactivity (PSR sort gate): low polyreactivity

QVQLVESGGGLVQAGGSLRLSCAASGRIFRGYVMGWYRQAPGKERELVAAISSSGGSTYYADSVKGRFTISRDNAKNTVYLQMNSLKPEDTAVYYCAAAKWFFYGRKYGKYDYWGQGTQVTVSS
polyreactivity (PSR sort gate): high polyreactivity

QVQLVESWGGLVQAGGSLRLSCAASGFTFTRNAMGWYRQAPGKERELVAAISKSGGRTYYADSVKGRFTISRDNAKYNVYLQMNSLKPEDTAVYYCAVVPRPFGLGSDYDYWGQGTQVTVSS
polyreactivity (PSR sort gate): high polyreactivity

QVQLVEAGGGLVQAGGSLRLTCAASGPIFLSKAMGWYRQAPGTERELVAAINSGGNTDYADSVKARFTISRDNEKNTFYLQMNSLKPEDTAVYYCAADAFSWDHDYWGQGTQVTVSS
polyreactivity (PSR sort gate): low polyreactivity

QVQLVESGGGLVQAGGSLSLICAASGGTFYKYAMGWYRQAPGKERELDAAISRSGGSTYYADSVKGRFTISRDNAKNTVYLQINRLKPEDTAVYYCKAYGSYWDFDYWGQRTQVTVSS
polyreactivity (PSR sort gate): high polyreactivity

QVQLVESGGGLVQAGGSLRLSCAASGSTFRWNAMGWYRQAPGKERELVAAISNGGSTNYADSVKGRFTISRDNAKNSVYFQMNSLKPEDTAVYYCATDGWYGQHYYDYDFDYYYWGQGTQVTVSS
polyreactivity (PSR sort gate): low polyreactivity

QVQLVESGRGLVQAGGRHRISCAASGSIIHDYAMGLYSQAPGKERELVAVISTSGGSTYYADSVKGRFTMSRDNAKNTVYLQMISLKPEETEVYYCNARTVGPYPSHAALEYDSWGPGTQVTVSS
polyreactivity (PSR sort gate): low polyreactivity

QVQLVESGGGLVQAGGSLRLSCAASGFTFYSYAMGWNRQAPGKERELVAAISGGGGSTYYADSVKGRFTISRDNAKNTVYLQMNSLKPEDTAVYYCAKRPAYRGYGLGYYWGQGTQVTVSS
polyreactivity (PSR sort gate): high polyreactivity

KVQLVESGGGLVQAGGSLRLSCAASGSIFWDNVMGWYRQAPGNERELVADIDSWDGGSTYYADSVKGRFTISRDNAKNTVYLQMNSLKPEDTAVYYCNSDVLWWRGGDDFWGKGTQVTVSS
polyreactivity (PSR sort gate): low polyreactivity

QVQLVESGGGLVQAGGSLRLSCAASGSTFQGYAMGWYRQAPGKERELVARISYTGASTYADSVKGRFTISRDNAKNTVYLQMNSLKPDDTAVYYCNAGGYRYRSYDYWGQGTQVTVSS
polyreactivity (PSR sort gate): high polyreactivity

QVQLVESGGGLVQAGGSLRLSCAASGFTLGYYAMGWDRQAPGKERELVASISITAGSTYYAVSVMGRLTISRDNAKNTVYLQMNSLKPEDTAVYYCAAKRRTRQSYYTVYYWGQGTQVTVSS
polyreactivity (PSR sort gate): high polyreactivity

QVQLVESGGGLVQAGGSLRLSCAASGNIFSAYAMGWYRQAPGTERELVATITSGGITYYADSVKGRFTISRDNAKNSVYLQKNSLKPEDTAVYYCNADHHGQAEYGYWGHGTQVTVSS
polyreactivity (PSR sort gate): low polyreactivity

QVQLVESGGGLVQAGGSLRLSCAASGRTFWRNAMGWYRQAPGKERELVAAINSGGRTYYADSVKGRFTISRDNAKNTVYLQMNSLKPEDTAVYYCAVYVHRFLDGRVRSYRGDYWGQGTQVTVSW
polyreactivity (PSR sort gate): high polyreactivity

QVQLVESGGGLVQEGGSLRLSCAASGSTFSIYAMGWYRQAPGKERELVAGISGSGGSTYYADSVKGRFTISRDNAKNTVYLQMNSLKPEDTAVYYCAKRVLWGLDYCGQGTQVTVSS
polyreactivity (PSR sort gate): low polyreactivity

QVQLVESGGGLVQAGGSLRLSCAASGSIFYGYAMGWYRQAPGKERELVAVISRRGDSTYYADSVKGRFTISRDNAKNSVYLQMNSLKPEDTAVYYCASYGSLSKGFGYWGQGTQVTVSS
polyreactivity (PSR sort gate): low polyreactivity

QVQLVESGGGLVQAGGSLRLSCAASGSTFKGYAMGWYRQAPGKERELVAAISSRTGSTYYADSVKGRFTISRDNAKNTVYLQMNSLKPEDTAVYYCAAPWFRDTRGYSLYDYWGQGTQVTVSS
polyreactivity (PSR sort gate): high polyreactivity
